{"source": "patent US12508311B2", "about": "“Fusion protein, and preparation method and use thereof” (SUN YAT-SEN UNIVERSITY, priority 2021, dated 2025)", "key": {"HCT116 cells": {"tested_on": "HCT116 cells", "assay": "Flow cytometry of tumor cell targeting, HCT116", "format": "cell-based, human", "conditions": "tested as 60 nM TKD-Cy5, 1 hour, Lys 05 10 μM", "experimental": "Wherein, the protein C18 column (25 cm×10 mm) was used, with sample injection of 2×400 μL each time, and gradient elution was carried out for 30 minutes, 0.1% TFA (trifluoroacetic acid) solution to MeCN (acetonitrile): H2O (0.1% TFA)=70:30, and a flow rate was 4 mL/min. • (4) Target color tape peaks were collected, and the retention time of a labeled polypeptide was longer than that of an unlabeled polypeptide. • (5) The TKD-Cy5 molecule was diluted to 60 μM, and stored in a PBS solution, and kept in the dark at −20° C. 2. […] The cells were treated with corresponding drugs, namely, in the experimental groups, the cells were treated with 60 nM TKD-Cy5 coupling molecule, and in the control groups, the cells were treated with the Cy5 single molecule with corresponding concentration. The lysosome inhibitor Lys 05 with the final concentration of 10 μM was added into the control groups and the experimental groups at the same time, and the final volume of the culture solution in each well was 1 mL. […] The cells were resuspended with the PBS buffer solution, and centrifuged again, and the supernatant was discarded. The operation was repeated for three times. Finally, the cleaned cells were resuspended in 0.2 mL of PBS, wrapped with foil paper, and then analyzed on the flow cytometer (company: BECKMAN COULTER; model: Cytoflex), with the fluorescence channel of APC-A."}, "HT29 (KRas wt)": {"tested_on": "HT29 (KRas wt)", "assay": "Cell clone formation experiment, HT29", "conditions": "10 and 20 μg/mL"}}}
{"molecule": "TKD: fusion protein: tumour-cell-penetrating peptide BR2, anti-KRas nanobody VHH and lysosome recognition peptide CTM; SEQ ID NO.4 (protein) RAGLQFPVGRLLRRLLRDVQLQESGGGLVQAGGSLRLSCVASGRTFSTYPTGWFRQAPGKEREFVARINLSGGITNYADSVKGRFTISRDNAKNTVYLQMNSLKPEDTAVYYCGGGSTTWAGGIPTNFDYWGQGTQVTVSSGRKFERQKILDQRFFE", "values": [{"measurement": "entry into cells (flow cytometry, Cy5 fluorescence)", "setting": "HCT116 cells", "result": "could specifically recognize and pass through the cell membrane to enter the colorectal cancer cells"}, {"measurement": "inhibition of clone growth", "setting": "HT29 (KRas wt)", "result": "could significantly inhibit the growth"}]}
